Substitutions are numbered along the chain they refer to. Where “and” joins values, the source holds several entries; their conditions need not be identical. Identical values can stand only once.

Assay [1] addresses T1, murine FAP avi his, biotinylated (murine, UniProt P97321 27-761, biotin on the avi-tag).
T1 construct: also called muFAP; mu FAP
As to the kind of experiment: SPR, bacterial supernatant. (In general: SPR reads the build-up and loss of mass on a sensor chip optically.)

Assay [2] addresses T2, human FAP avi his, biotinylated (human, UniProt Q12884 27-759, biotin on the avi-tag).
T2 construct: also called huFAP
As to the kind of experiment: SPR, bacterial supernatant.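 Also: SPR at 25 °C with biotinylated human or murine FAP captured via neutravidin, aVH-containing bacterial supernatants diluted 1:3 as analyte, 600 s dissociation, blank supernatant without aVH as reference.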

Assay [3] deals with T2, human FAP avi his, biotinylated. As to the kind of experiment: SPR, purified aVH, FAP immobilised.
For assay [4], the target named is T1, murine FAP avi his, biotinylated. As to the kind of experiment: SPR, purified aVH, FAP immobilised.
The target in assay [5] is T3, recombinant human LAG3 Fc Chimera Protein (R&D Systems, 2319-L3) (human, UniProt P18627 23-450).
T3 construct: Bought
T3 sequence (looked up): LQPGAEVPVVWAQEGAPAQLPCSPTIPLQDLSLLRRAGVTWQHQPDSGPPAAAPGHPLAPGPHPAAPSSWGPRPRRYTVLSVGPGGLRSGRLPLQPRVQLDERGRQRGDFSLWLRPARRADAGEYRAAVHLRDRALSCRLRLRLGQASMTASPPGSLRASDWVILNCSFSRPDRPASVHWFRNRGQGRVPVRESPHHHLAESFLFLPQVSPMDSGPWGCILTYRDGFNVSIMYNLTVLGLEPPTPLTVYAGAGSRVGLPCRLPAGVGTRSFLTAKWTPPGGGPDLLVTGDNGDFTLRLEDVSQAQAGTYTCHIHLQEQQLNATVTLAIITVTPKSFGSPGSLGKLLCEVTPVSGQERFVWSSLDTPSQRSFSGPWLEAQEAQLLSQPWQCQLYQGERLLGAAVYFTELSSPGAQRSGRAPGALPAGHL
Description: ELISA, coated LAG3 Fc. A general note: In an ELISA, binding on a coated surface is turned into a signal by an enzyme label.

Assay [6] has as its target T4, soluble human Lag3-IgG1-Fc with biotinylated C-terminal Avi-tag (human, biotin on the Avi-tag).
T4 construct: Lag3 ECD, IEGRMD linker, IgG1 Fc, Avi-tag; also called LAG3-Fc-avi; biotinylated LAG3-Fc
As to the kind of experiment: A375 MHCII competition ELISA, 3 ug/ml.

The target in assay [7] is T4, soluble human Lag3-IgG1-Fc with …. Description: A375 MHCII competition ELISA.
Assay [8] concerns the target T5, human LAG3 on recombinant CHO cells (human, UniProt P18627 23-525).
T5 construct: whole, on cells; also called Lag3 cells
T5 sequence (looked up): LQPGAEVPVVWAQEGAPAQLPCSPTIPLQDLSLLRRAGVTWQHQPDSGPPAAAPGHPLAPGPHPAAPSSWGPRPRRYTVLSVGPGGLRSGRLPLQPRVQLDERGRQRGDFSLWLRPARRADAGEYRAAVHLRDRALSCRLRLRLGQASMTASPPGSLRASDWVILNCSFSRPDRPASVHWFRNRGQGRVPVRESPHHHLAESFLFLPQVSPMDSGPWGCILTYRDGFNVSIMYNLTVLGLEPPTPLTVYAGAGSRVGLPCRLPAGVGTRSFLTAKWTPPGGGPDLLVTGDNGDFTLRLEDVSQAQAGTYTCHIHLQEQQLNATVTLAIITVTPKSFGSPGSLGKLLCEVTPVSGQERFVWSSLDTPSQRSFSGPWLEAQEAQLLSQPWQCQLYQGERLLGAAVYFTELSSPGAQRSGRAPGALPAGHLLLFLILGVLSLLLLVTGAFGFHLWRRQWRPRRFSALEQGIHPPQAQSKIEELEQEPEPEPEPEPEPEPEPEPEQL
As to the kind of experiment: cell ELISA, CHO-LAG3.

For assay [9], the target named is T3, recombinant human LAG3 Fc Chimera …. As to the kind of experiment: SPR, captured antibody, LAG3 Fc analyte.
The target in assay [10] is T6, MCSP antigen, amino acids 1553 to 2184 of matured MCSP with C-terminal avi-tag and His-tag, biotinylated (Homo sapiens (Human), UniProt Q6UVK1 1582-2213, limits assumed, biotin on the avi-tag).
T6 construct: also called recombinant MCSP
T6 sequence: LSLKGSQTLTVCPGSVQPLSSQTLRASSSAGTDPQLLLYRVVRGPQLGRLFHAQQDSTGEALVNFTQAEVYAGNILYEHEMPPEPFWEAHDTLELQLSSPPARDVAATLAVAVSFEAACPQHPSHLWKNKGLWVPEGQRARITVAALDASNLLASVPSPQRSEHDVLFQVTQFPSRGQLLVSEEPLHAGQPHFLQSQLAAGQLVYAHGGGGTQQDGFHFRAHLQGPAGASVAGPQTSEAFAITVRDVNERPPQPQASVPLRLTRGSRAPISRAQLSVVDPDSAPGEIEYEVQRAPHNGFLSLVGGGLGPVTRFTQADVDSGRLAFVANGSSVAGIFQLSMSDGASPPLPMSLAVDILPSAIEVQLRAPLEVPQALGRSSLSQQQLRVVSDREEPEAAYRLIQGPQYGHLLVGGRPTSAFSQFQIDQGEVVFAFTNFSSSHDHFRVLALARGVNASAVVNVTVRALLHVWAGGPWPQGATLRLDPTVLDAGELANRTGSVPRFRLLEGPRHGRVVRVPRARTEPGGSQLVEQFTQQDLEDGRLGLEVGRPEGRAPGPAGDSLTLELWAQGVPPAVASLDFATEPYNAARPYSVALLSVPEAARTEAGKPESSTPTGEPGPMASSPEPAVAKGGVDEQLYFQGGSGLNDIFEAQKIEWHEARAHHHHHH
As to the kind of experiment: ELISA, supernatant on biotinylated antigen.

The target in assay [11] is T7, murine LAG3-Fc antigen (R&D Systems, 3328-L3-050) (murine, UniProt Q61790 24-442).
T7 construct: Bought
T7 sequence (looked up): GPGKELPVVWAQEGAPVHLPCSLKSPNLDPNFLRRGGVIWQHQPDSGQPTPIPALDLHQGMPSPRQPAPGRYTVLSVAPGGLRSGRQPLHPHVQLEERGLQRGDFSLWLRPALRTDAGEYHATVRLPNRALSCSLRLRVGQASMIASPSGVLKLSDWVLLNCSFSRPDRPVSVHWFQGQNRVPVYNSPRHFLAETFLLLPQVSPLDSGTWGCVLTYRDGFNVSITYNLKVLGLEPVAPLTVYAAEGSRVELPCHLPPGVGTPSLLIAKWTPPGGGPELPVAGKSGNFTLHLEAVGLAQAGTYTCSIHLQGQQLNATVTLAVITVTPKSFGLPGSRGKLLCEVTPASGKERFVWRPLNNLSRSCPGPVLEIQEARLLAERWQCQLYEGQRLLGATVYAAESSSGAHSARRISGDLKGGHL
Description: ELISA, murine LAG3-Fc.

Assay [12] deals with T3, recombinant human LAG3 Fc Chimera …. Description: SPR, captured aVH-Fc, LAG3 Fc analyte.
In assay [13] the target is T4, soluble human Lag3-IgG1-Fc with …. As to the kind of experiment: ELISA, supernatant on biotinylated antigen.

B1: anti-FAP aVH P034.090 (VHH)
VHH: EVQLVESGGGLVQPGGSLRLSCAASGFNIKDTCIGWVRRAPGKEEELVANICSSYGHTRYADSVKGRFTISADTSKNTAYLQMNSLRAEDTAVYYCASSYTIYRYSYWGQGTTVTVSS
Usually koff stands for the rate constant with which the complex falls apart. One may read the Kd as a measure of binding affinity in units of concentration. A word on the kon: it is a measure of how fast the partners come together. A lower kon goes with slower complex formation. Regarding B1, in assay [1], the koff was 0.0255 s⁻¹. In addition, in [2], the dissociation rate constant (koff) was 0.00107 s⁻¹. In [3], this molecule registered a Kd of 0.846 nM, a koff of 0.00046 s⁻¹ and an on-rate (kon) of 552000 M⁻¹ s⁻¹.

B2: anti-FAP aVH P047.001 (VHH)
VHH: B1 VHH with S53G, S54K, Y55I, H57I, S98N, Y103V, S106D
B2: the koff in assay [1] came out at 0.0157 s⁻¹; in assay [2], 0.00542 s⁻¹; in assay [4] it was 0.00784 s⁻¹; in assay [3] it was 0.00133 s⁻¹. Further, the Kd in assay [4] was 24.5 nM; in assay [3], 1.15 nM. Besides, the on-rate constant (kon) in assay [4] amounted to 320000 M⁻¹ s⁻¹; in assay [3] it was 1.15e+06 M⁻¹ s⁻¹.

B3: MDX 25F7 (antibody, V domains shown)
VH: QVQLQQWGAGLLKPSETLSLTCAVYGGSFSDYYWNWIRQPPGKGLEWIGEINHNGNTNSNPSLKSRVTLSLDTSKNQFSLKLRSVTAADTAVYYCAFGYSDYEYNWFDPWGQGTLVTVSS
VL: EIVLTQSPATLSLSPGERATLSCRASQSISSYLAWYQQKPGQAPRLLIYDASNRATGIPARFSGSGSGTDFTLTISSLEPEDFAVYYCQQRSNWPLTFGQGTNLEIK
In general, EC50 refers to the concentration at which the effect is half-maximal. The term % Inhibition denotes the relative decrease from the control value, in per cent. Low readings indicate little suppression, high ones strong suppression. In general, IC50 refers to the midpoint of a concentration-inhibition curve. A high value points to weaker potency. The term t½ denotes how long it takes for the measured level to halve. On to B3, for which, in assay [5], the half-maximal effective concentration (EC50) is 0.0031 µg/mL and 0.02 nM; the OD max is 3.39. In addition, the “% Inhibition” value in assay [6] worked out at 90.4%. In [7], the IC50 is 0.127 µg/mL and 0.8 nM. The OD max in [8] is 2.06. In [9], the koff stood at 0.00039 s⁻¹ and the t½ was found to be 0.5 h.

B4: SEQ ID NO 61 (VHH)
VHH: EVQLVESGGGLVQPGGSLRLSCAASSFNIKDTYIGWVRRAPGKGTELVAGIYCEAGITRYADSVKGRFTISCDTSKNTAYLQMNSLRAEDTAVYYCAGKGIGNYFDYWGQGTTVTVSS
notes: also called MCSP-specific aVH
For B4, the binding result in assay [10] is recorded as “binds”.

B5: 9B4 aVH-Fc, bivalent (PG-LALA) (Fc fusion)
chain: EVQLVESGGGLVQPGGSLRLSCAASGFNIKDTCIGWVRRAPGKGTELVAEICQDIGYTRYADSVKGRFTISADTSKNTAYLQMNSLRAEDTAVYYCAAVEVAEYFEYWGQGTTVTVSS
notes: not shown: linker and human IgG1 Fc (PG-LALA)
Turning to B5, the binding result in assay [11] is recorded as “no binding”. In [5], the EC50 was 0.0194 µg/mL and 0.3 nM; the OD max is 1.2. Further, the “% Inhibition” value in [6] was 95.5%. In addition, in assay [12], the koff was found to be 0.00019 s⁻¹ and the t½ came out at 1.02 h. Also, the half-maximal inhibitory concentration (IC50) in assay [7] is 0.0762 µg/mL and 1 nM. In assay [8], the EC50 was 0.0288 µg/mL and 0.4 nM; the OD max was 1.3.

B6: SEQ ID NO 91 (VHH)
VHH: B5 chain with Q53H, V99E, V101H, A102V, E103A, Y104S
notes: also called LAG3-specific aVH
As for B6, the binding result in [13] is given as “binds”.

B7: P10D1 aVH-Fc, bivalent (PG-LALA) (Fc fusion)
chain: B5 chain with N28S, G35A, Q53E, V99K, V101A, A102G, E103V, Y104G, E106D
notes: as for B5
Consider B7, for which the binding result in assay [11] was “no binding”. In addition, in assay [5], the concentration for a half-maximal effect (EC50) is 0.113 µg/mL and 1.5 nM; the OD max stood at 0.9. The “% Inhibition” value in [6] was 93.4%. Moreover, in [12], the dissociation rate constant (koff) was found to be 0.00011 s⁻¹ and the t½ is 1.7 h. Further, the 50% inhibitory concentration (IC50) in assay [7] was 0.0933 µg/mL and 1.2 nM. In addition, in [8], the EC50 was 0.029 µg/mL and 0.4 nM; the OD max was 1.2.

B8: SEQ ID NO 89 (VHH)
VHH: B5 chain with Q53T, I55A, V99S, V101S, A102P, E103S, Y104G, E106R
notes: also called LAG3-specific aVH
Regarding B8, in assay [13], the binding result was “binds”.

B9: SEQ ID NO 97 (VHH)
VHH: B5 chain with Q53D, A98S, V99Q, V101H, A102Q, E103W, Y104S, E106K
notes: also called LAG3-specific aVH
Regarding B9, the binding result in assay [13] was “binds”.

B10: SEQ ID NO 85 (VHH)
VHH: B5 chain with A98G, V99E, V101G, E103T, Y104N, E106K
notes: also called LAG3-specific aVH
For the molecule B10, the binding result in [13] was “binds”.

B11: SEQ ID NO 95 (VHH)
VHH: B5 chain with D31Y, T32Q, Q53S, D54Y, I55D, V99E, V101S, A102V, Y104G, E106I
notes: also called LAG3-specific aVH
On to B11, for which, in [13], the binding result was “binds”.

B12: anti-FAP aVH P049.004 (VHH)
VHH: EVQLVESGGGLVQPGGSLRLSCAASSFNIKDTYIGWVRRAPGKEEELVANIYCNYGYTRYADSVKGRFTISCDTSKNTAYLQMNSLRAEDTAVYYCATSHTRYHYKYWGQGTTVTVSS
With B12, the koff in assay [1] came to 0.00207 s⁻¹. Besides, the off-rate constant (koff) in assay [2] was 0.00508 s⁻¹. In assay [4], this molecule displayed a Kd of 23 nM, a koff of 0.00102 s⁻¹ and an on-rate (kon) of 51000 M⁻¹ s⁻¹.

B13: SEQ ID NO 59 (VHH)
VHH: EVQLVESGGGLVQPGGSLRLSCAASSFNIKDTYIGWVRRAPGKGTELVADIYCSEGSTRYADSVKGRFTISCDTSKNTAYLQMNSLRAEDTAVYYCAAVSDYVVFYYWGQGTTVTVSS
notes: also called MCSP-specific aVH
For B13, in [10], the binding result is “binds”.

The values above are taken from patent US20260070940A1 (Hoffmann-La Roche, published 2026).
